The labels stand for the following.
B1: Peptide No. 259 (peptide)
peptide: RF[Pen]TG[His(Me)]FGGLYPC-NH2
modifications: disulfide 3-13
B2: Peptide No. 260 (peptide)
peptide: RF[Pen]TG[His(Me)2]FGGLYPC-NH2
modifications: disulfide 3-13
B3: Peptide No. 256 (peptide)
peptide: RF[Pen]TGRFG[Sar][NMeL]YPC-NH2
modifications: disulfide 3-13; N-terminus assumed
SMILES: CC(C)C[C@H]1C(=O)N[C@@H](Cc2ccc(O)cc2)C(=O)N2CCC[C@H]2C(=O)N[C@H](C(N)=O)CSSC(C)(C)[C@H](NC(=O)[C@H](Cc2ccccc2)NC(=O)[C@@H](N)CCCNC(=N)N)C(=O)N[C@@H]([C@@H](C)O)C(=O)NCC(=O)N[C@@H](CCCNC(=N)N)C(=O)N[C@@H](Cc2ccccc2)C(=O)NCC(=O)N(C)CC(=O)N1C
B4: Peptide No. 255 (peptide)
peptide: RF[Pen]TGKFG[Sar][NMeL]YPC-NH2
modifications: disulfide 3-13; N-terminus assumed
SMILES: CC(C)C[C@H]1C(=O)N[C@@H](Cc2ccc(O)cc2)C(=O)N2CCC[C@H]2C(=O)N[C@H](C(N)=O)CSSC(C)(C)[C@H](NC(=O)[C@H](Cc2ccccc2)NC(=O)[C@@H](N)CCCNC(=N)N)C(=O)N[C@@H]([C@@H](C)O)C(=O)NCC(=O)N[C@@H](CCCCN)C(=O)N[C@@H](Cc2ccccc2)C(=O)NCC(=O)N(C)CC(=O)N1C
B5: Peptide No. 257 (peptide)
peptide: RF[Pen]TG[Phe(4-amidino)]FG[Sar][NMeL]YPC-NH2
modifications: disulfide 3-13; N-terminus assumed
SMILES: CC(C)C[C@H]1C(=O)N[C@@H](Cc2ccc(O)cc2)C(=O)N2CCC[C@H]2C(=O)N[C@H](C(N)=O)CSSC(C)(C)[C@H](NC(=O)[C@H](Cc2ccccc2)NC(=O)[C@@H](N)CCCNC(=N)N)C(=O)N[C@@H]([C@@H](C)O)C(=O)NCC(=O)N[C@@H](Cc2ccc(C(=N)N)cc2)C(=O)N[C@@H](Cc2ccccc2)C(=O)NCC(=O)N(C)CC(=O)N1C
B6: Peptide No. 27 (peptide)
peptide: QRFCTGHFGGLYP[hCys]NGP-NH2
modifications: disulfide 4-14; N-terminus assumed
SMILES: CC(C)C[C@@H]1NC(=O)CNC(=O)CNC(=O)[C@H](Cc2ccccc2)NC(=O)[C@H](Cc2c[nH]cn2)NC(=O)CNC(=O)[C@H]([C@@H](C)O)NC(=O)[C@@H](NC(=O)[C@H](Cc2ccccc2)NC(=O)[C@H](CCCNC(=N)N)NC(=O)[C@@H](N)CCC(N)=O)CSSCC[C@@H](C(=O)N[C@@H](CC(N)=O)C(=O)NCC(=O)N2CCC[C@H]2C(N)=O)NC(=O)[C@@H]2CCCN2C(=O)[C@H](Cc2ccc(O)cc2)NC1=O
B7: Peptide No. 34 (peptide)
peptide: QRF[Pen]TGHFGGLYP[Pen]NGP-NH2
modifications: disulfide 4-14; N-terminus assumed
SMILES: CC(C)C[C@@H]1NC(=O)CNC(=O)CNC(=O)[C@H](Cc2ccccc2)NC(=O)[C@H](Cc2c[nH]cn2)NC(=O)CNC(=O)[C@H]([C@@H](C)O)NC(=O)[C@@H](NC(=O)[C@H](Cc2ccccc2)NC(=O)[C@H](CCCNC(=N)N)NC(=O)[C@@H](N)CCC(N)=O)C(C)(C)SSC(C)(C)[C@@H](C(=O)N[C@@H](CC(N)=O)C(=O)NCC(=O)N2CCC[C@H]2C(N)=O)NC(=O)[C@@H]2CCCN2C(=O)[C@H](Cc2ccc(O)cc2)NC1=O
B8: Peptide No. 28 (peptide)
peptide: QRF[hCys]TGHFGGLYP[hCys]NGP-NH2
modifications: disulfide 4-14; N-terminus assumed
SMILES: CC(C)C[C@@H]1NC(=O)CNC(=O)CNC(=O)[C@H](Cc2ccccc2)NC(=O)[C@H](Cc2c[nH]cn2)NC(=O)CNC(=O)[C@H]([C@@H](C)O)NC(=O)[C@@H](NC(=O)[C@H](Cc2ccccc2)NC(=O)[C@H](CCCNC(=N)N)NC(=O)[C@@H](N)CCC(N)=O)CCSSCC[C@@H](C(=O)N[C@@H](CC(N)=O)C(=O)NCC(=O)N2CCC[C@H]2C(N)=O)NC(=O)[C@@H]2CCCN2C(=O)[C@H](Cc2ccc(O)cc2)NC1=O
B9: Peptide No. 243 (peptide)
peptide: RF[Pen]TGHF[dN][Sar][NMeL]YPC-NH2
modifications: disulfide 3-13; N-terminus assumed
SMILES: CC(C)C[C@H]1C(=O)N[C@@H](Cc2ccc(O)cc2)C(=O)N2CCC[C@H]2C(=O)N[C@H](C(N)=O)CSSC(C)(C)[C@H](NC(=O)[C@H](Cc2ccccc2)NC(=O)[C@@H](N)CCCNC(=N)N)C(=O)N[C@@H]([C@@H](C)O)C(=O)NCC(=O)N[C@@H](Cc2c[nH]cn2)C(=O)N[C@@H](Cc2ccccc2)C(=O)N[C@H](CC(N)=O)C(=O)N(C)CC(=O)N1C
B10: Peptide No. 240 (peptide)
peptide: RF[Pen]TGHF[dT][Sar][NMeL]YPC-NH2
modifications: disulfide 3-13; N-terminus assumed
SMILES: CC(C)C[C@H]1C(=O)N[C@@H](Cc2ccc(O)cc2)C(=O)N2CCC[C@H]2C(=O)N[C@H](C(N)=O)CSSC(C)(C)[C@H](NC(=O)[C@H](Cc2ccccc2)NC(=O)[C@@H](N)CCCNC(=N)N)C(=O)N[C@@H]([C@@H](C)O)C(=O)NCC(=O)N[C@@H](Cc2c[nH]cn2)C(=O)N[C@@H](Cc2ccccc2)C(=O)N[C@H]([C@H](C)O)C(=O)N(C)CC(=O)N1C
B11: Peptide No. 241 (peptide)
peptide: RF[Pen]TGHF[dS][Sar][NMeL]YPC-NH2
modifications: disulfide 3-13; N-terminus assumed
SMILES: CC(C)C[C@H]1C(=O)N[C@@H](Cc2ccc(O)cc2)C(=O)N2CCC[C@H]2C(=O)N[C@H](C(N)=O)CSSC(C)(C)[C@H](NC(=O)[C@H](Cc2ccccc2)NC(=O)[C@@H](N)CCCNC(=N)N)C(=O)N[C@@H]([C@@H](C)O)C(=O)NCC(=O)N[C@@H](Cc2c[nH]cn2)C(=O)N[C@@H](Cc2ccccc2)C(=O)N[C@H](CO)C(=O)N(C)CC(=O)N1C
B12: Peptide No. 244 (peptide)
peptide: RF[Pen]TGHF[dE][Sar][NMeL]YPC-NH2
modifications: disulfide 3-13; N-terminus assumed
SMILES: CC(C)C[C@H]1C(=O)N[C@@H](Cc2ccc(O)cc2)C(=O)N2CCC[C@H]2C(=O)N[C@H](C(N)=O)CSSC(C)(C)[C@H](NC(=O)[C@H](Cc2ccccc2)NC(=O)[C@@H](N)CCCNC(=N)N)C(=O)N[C@@H]([C@@H](C)O)C(=O)NCC(=O)N[C@@H](Cc2c[nH]cn2)C(=O)N[C@@H](Cc2ccccc2)C(=O)N[C@H](CCC(=O)O)C(=O)N(C)CC(=O)N1C
B13: Peptide No. 219 (peptide)
peptide: RF[Pen]TGHF[dL][Sar][NMeL]YPC-NH2
modifications: disulfide 3-13; N-terminus assumed
SMILES: CC(C)C[C@H]1NC(=O)[C@H](Cc2ccccc2)NC(=O)[C@H](Cc2c[nH]cn2)NC(=O)CNC(=O)[C@H]([C@@H](C)O)NC(=O)[C@@H](NC(=O)[C@H](Cc2ccccc2)NC(=O)[C@@H](N)CCCNC(=N)N)C(C)(C)SSC[C@@H](C(N)=O)NC(=O)[C@@H]2CCCN2C(=O)[C@H](Cc2ccc(O)cc2)NC(=O)[C@H](CC(C)C)N(C)C(=O)CN(C)C1=O
B14: Peptide No. 258 (peptide)
peptide: RF[Pen]TG[Phe(4-NH2)]FG[Sar][NMeL]YPC-NH2
modifications: disulfide 3-13; N-terminus assumed
SMILES: CC(C)C[C@H]1C(=O)N[C@@H](Cc2ccc(O)cc2)C(=O)N2CCC[C@H]2C(=O)N[C@H](C(N)=O)CSSC(C)(C)[C@H](NC(=O)[C@H](Cc2ccccc2)NC(=O)[C@@H](N)CCCNC(=N)N)C(=O)N[C@@H]([C@@H](C)O)C(=O)NCC(=O)N[C@@H](Cc2ccc(N)cc2)C(=O)N[C@@H](Cc2ccccc2)C(=O)NCC(=O)N(C)CC(=O)N1C
B15: Peptide No. 218 (peptide)
peptide: RF[Pen]TGHF[dV][Sar][NMeL]YPC-NH2
modifications: disulfide 3-13; N-terminus assumed
SMILES: CC(C)C[C@H]1C(=O)N[C@@H](Cc2ccc(O)cc2)C(=O)N2CCC[C@H]2C(=O)N[C@H](C(N)=O)CSSC(C)(C)[C@H](NC(=O)[C@H](Cc2ccccc2)NC(=O)[C@@H](N)CCCNC(=N)N)C(=O)N[C@@H]([C@@H](C)O)C(=O)NCC(=O)N[C@@H](Cc2c[nH]cn2)C(=O)N[C@@H](Cc2ccccc2)C(=O)N[C@H](C(C)C)C(=O)N(C)CC(=O)N1C

Bridge positions count the residues as written; N and C are the ends. Square brackets hold non-standard residues; d marks the D form. Ends that are not written are not given here. Phe(4-amidino) = N=C(N)c1ccc(C[C@H](N)C(=O)O)cc1; Phe(4-NH2) = Nc1ccc(C[C@H](N)C(=O)O)cc1; His(Me) = mono-methylated histidine; NMeL = CN[C@@H](CC(C)C)C(=O)O; Pen = CC(C)(S)[C@H](N)C(=O)O; hCys = N[C@@H](CCS)C(=O)O; Sar = CNCC(=O)O

The target of one assay is T1, soluble human FcRn (shFcRn) (human, UniProt P55899 24-297; P61769 21-119).
T1 construct: Biotinylated for the ELISA, amine-coupled to a CM5 chip for SPR; also called biotinylated shFcRn
T1 sequence (P55899 24-297 limits assumed, chain 1 of 2): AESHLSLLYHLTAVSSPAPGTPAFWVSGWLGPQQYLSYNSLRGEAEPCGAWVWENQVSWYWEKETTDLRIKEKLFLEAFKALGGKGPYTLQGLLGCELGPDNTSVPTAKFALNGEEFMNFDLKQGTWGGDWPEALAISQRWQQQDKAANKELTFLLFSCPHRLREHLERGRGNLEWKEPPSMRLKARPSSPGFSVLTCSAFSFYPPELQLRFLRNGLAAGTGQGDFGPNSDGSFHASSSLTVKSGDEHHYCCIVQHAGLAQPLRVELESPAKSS
T1 sequence (P61769 21-119 limits assumed, chain 2 of 2): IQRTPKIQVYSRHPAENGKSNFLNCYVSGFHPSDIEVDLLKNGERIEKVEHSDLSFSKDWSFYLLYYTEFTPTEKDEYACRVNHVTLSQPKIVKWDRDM
Nature of the assay: SPR pH 6.
Procedure: (§1) The following steps were performed to cross-link soluble human or cynomolgus FcRn to the dextran surface of a CM5 sensor chip (Biacore AB, Uppsala, Sweden) by an amine coupling reaction involving 1-ethyl-(3-dimethylaminopropyl)-carbodiimide hydrochloride (EDC) (Biacore AB, Uppsala, Sweden) and N-hydroxysuccinimide (NHS) (Biacore AB, Uppsala, Sweden) as recommended by Biacore (BIAapplications Handbook, version AB, section 4.2, Biacore AB, Uppsala, Sweden). […] Residual sites on the FcRn flow cell were blocked with 1 M ethanolamine hydrochloride pH 8.5 (Biacore AB, Uppsala, Sweden). A control flow cell was blocked with ethanolamine for reference subtraction. For analysis of the monomeric peptides, FcRn was coated to a final density of 4000-5000 response units (RU). For analysis of the peptide dimers, FcRn was coated to a density of 2000-2500 RU. All SPR measurements were performed using a BIACORE 3000 Instrument (Biacore AB Uppsala, Sweden). For measurements done at either pH 6 or pH 7.4, experiments were performed in 50 mM phosphate, 100 mM sodium chloride, 0.01% surfactant P20 (Biacore AB, Uppsala, Sweden).
(§2) Ten, 2-fold dilutions of the peptide were injected over the FcRn-CM5 chip at a rate of 20 μl/min for 2 min. The peptide was dissociated from the chip for 2.5 minutes with buffer. Any remaining peptide was removed from the chip with a 30 second injection of HBS-P buffer (Biacore AB, Uppsala, Sweden) at a rate of 30 μl/min. Sensorgrams were generated and analyzed using BiaEval software version 3.1 (Biacore AB, Uppsala, Sweden). The equilibrium RU observed for each injection was plotted against concentration. The equilibrium KD values were derived by analysis of the plots using the steady state affinity model included in the BiaEval software.
B1 came in with an equilibrium dissociation constant (Kd) of 140 nM.

As to B2, binding was put at a Kd of 190 nM.

B3 displayed a dissociation constant Kd of 500 nM.

As to B4, binding was put at a Kd of 1300 nM.

As for B5, binding was put at a Kd of 74 nM.

The target of another assay is T1, soluble human FcRn (shFcRn). Nature of the assay: SPR pH 6. The source holds these as a separate data set.
Procedure: as §1, §2
B6 showed a Kd of 3.9 µM.

B7 displayed a Kd of 0.37 µM.

Take B8: binding was characterised by a dissociation constant (Kd) of 3.8 µM.

The next assay shares this target. In words: SPR pH 6. This is another data set of the same source.
Procedure: as §1, §2
B9 yielded an equilibrium dissociation constant (Kd) of 2100 nM.

As for B10, the dissociation constant Kd worked out at 4800 nM.

As to B11, binding was characterised by a dissociation constant (Kd) of 1100 nM.

As to B12, the Kd came out at 580 nM.

On to B13, for which binding was put at a Kd of 470 nM.

A further assay has the same target. In words: IgG competition ELISA.
Procedure: (§3) The wells were coated with 100 μl/well of 1 μg/ml biotinylated-shFcRn in Buffer A. The plate was sealed and incubated at 37° C. for 2 hours. Afterwards, the plate was washed with 200 μl/well of Buffer B (Buffer B: 100 mM MES pH 6, 150 mM NaCl, 0.5% BSA IgG-free (Jackson ImmunoResearch, West Grove, Pa.), 0.05% Tween-20). […] To allow for mixing, the plate was rocked for 2 minutes, sealed and incubated at 37° C. for 2 hours. […] The plate was covered, incubated for 30 minutes at room temperature and washed 4 times with 200 μl/well of ice-cold buffer B. SureBlue TMB substrate solution (100 μl/well, KPL, Gaithersburg, Md.) was added and the plate was allowed to incubate at room temperature until color developed, which took 5 to 10 minutes. Once color developed, 100 μl/well of TMB stop solution (KPL, Gaithersburg, Md.) was added and the absorbance was measured at 450 nm. The data was plotted as absorbance vs. peptide concentration to derive the inhibitory concentration 50% (IC₅₀) values.
Take B1: the IC50 turned out to be 2.9 µM.

In the case of B2, the half-inhibitory concentration (IC50) turned out to be 4.4 µM.

Molecule B3 had an IC50 of 5.5 µM.

For B4, the half-maximal inhibitory concentration (IC50) was found to be 40 µM.

Regarding B14, the 50% inhibitory concentration (IC50) is 4.6 µM.

For another assay the target is unchanged. In words: SPR pH 7.4.
Procedure: as §1, §2
In turn, B1 returned a dissociation constant Kd of 380 nM.

Consider B2, for which the affinity, expressed as Kd, was 460 nM.

On to B3, for which the Kd is 500 nM.

Consider B4, for which binding was characterised by a dissociation constant (Kd) of 1100 nM.

In the case of B5, the Kd amounted to 73 nM.

In turn, B14 showed a dissociation constant (Kd) of 1100 nM.

Another assay shares this target. In words: IgG competition ELISA. The source holds these as a separate data set.
Procedure: as §3
For B15, the concentration for half-maximal inhibition (IC50) is above 50 µM.

B9 returned an IC50 of 29 µM.

B10 returned an IC50 of 71 µM.

Take B11: the IC50 is 23 µM.

In turn, B12 yielded an IC50 of 6.4 µM.

Consider B13, for which the 50% inhibitory concentration (IC50) is 4 µM.

The target is the same in another assay. In words: IgG competition ELISA. The source holds these as a separate data set.
In the case of B6, the IC50 is 21 µM.

B7: the IC50 turned out to be 2 µM.

On to B8, for which the IC50 worked out at 20 µM.

Usually Kd stands for the constant that tells how readily two partners part at equilibrium. As a reminder, the IC50 is the midpoint of a concentration-inhibition curve. Higher therefore signals a need for much substance.

For the origin of these results see US20110059889A1 (SYNTONIX PHARMACEUTICALS, published 2011).
